Measured values reported in PMC6238609, “Secretory granule protein chromogranin B (CHGB) forms an anion channel in membranes” (Life Science Alliance, 2018).

Key:
[1] = molecular target: the molecule itself; test: SEC; partially purified CHGB in a Superose 6 column, earlier SEC step during purification
[2] = molecular target: the molecule itself; test: SEC; purified CHGB in detergent (0.050% Triton X-100), Superose 6 10/30 column; single symmetric peak

B1: recombinant murine chromogranin B (CHGB) (natural protein, mouse, UniProt P16014 21-677, looked up)
chain: APVDNRDHNEEMVTRCIIEVLSNALSKSSVPTITPECRQVLKKSGKEVKGEEKGENQNSKFEVRLLRDPADASGTRWASSREDAGAPVEDSQGQTKVGNEKWTEGGGHSREGVDDQESLRPSNQQASKEAKIYHSEERVGKEREKEEGKIYPMGEHREDAGEEKKHIEDSGEKPNTFSNKRSEASAKKKDESVARADAHSMELEEKTHSREQSSQESGEETRRQEKPQELTDQDQSQEESQEGEEGEEGEEGEEGEEDSASEVTKRRPRHHHGRSGSNKSSYEGHPLSEERRPSPKESKEADVATVRLGEKRSHHLAHYRASEEEPEYGEESRSYRGLQYRGRGSEEDRAPRPRSEESQEREYKRNHPDSELESTANRHGEETEEERSYEGANGRQHRGRGREPGAHSALDTREEKRLLDEGHYPVRESPIDTAKRYPQSKWQEQEKNYLNYGEEGDQGRWWQQEEQLGPEESREEVRFPDRQYEPYPITEKRKRLGALFNPYFDPLQWKNSDFEKRGNPDDSFLEDEGEDRNGVTLTEKNSFPEYNYDWWERRPFSEDVNWGYEKRSFARAPQLDLKRQYDGVAELDQLLHYRKKADEFPDFYDSEEQMGPHQEANDEKARADQRVLTAEEKKELENLAAMDLELQKIAEKFSQRG
notes: chromogranin B (CHGB), mouse; cDNA of the mouse CHGB gene (mChgb) cloned from a pcDNA3.1 plasmid into pFastBac 1; The protein needs Triton X-100-like detergents to stay soluble; also called mCHGB; mouse CHGB; source: sf9 cells (baculovirus), purified (Q-sepharose, ammonium sulfate, Ni-IDA, Superose 6 SEC) in Triton X-100
stoichiometry N [1]: 4 | stoichiometry N [2]: 2
